Measured values reported in patent US12195506B2, “Immunotherapy with A*01 restricted peptides and combination of peptides against cancers and related methods” (Immatics Biotechnologies GmbH, priority 2018, dated 2025).

The substances below were run against HLA-A*01:01 (Homo sapiens, UniProt P04439, A114D/A174V/A182V/D101N/D185E/E176A/E190D/L180R/Q94H/R68K/S129P/T187R/V100A/V91M/W191G) (assay: MHC binding assay: UV-ligand exchange, ELISA of stabilized MHC complexes (peptide exchange yield)). Details: binding to HLA-A*01:01, UV-ligand exchange.
Method in brief: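 Peptide–MHC complexes were formed by UV-induced exchange of a photocleavable ligand for the test peptide. Exchange yield was measured by streptavidin-capture ELISA of 100-fold diluted complexes, detected with HRP anti-β2m at A450. Refolded HLA-A*02:01/MLA-001 monomers at 15-500 ng/ml served as standards.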
With “158 (EVTDRNMLAF; listed as Homo sapiens) [compound 158]” the Peptide exchange was “+++ (>50 = +++)”. For “159 (RQAPGPARDY; listed as Homo sapiens) [compound 159]”, the Peptide exchange was “++ (>20% = ++)”. With “160 (EVLGEEMYAY; listed as Homo sapiens) [compound 160]” the Peptide exchange was “++ (>20% = ++)”. In the case of “161 (EAAPDIMHY; listed as Homo sapiens) [compound 161]”, the Peptide exchange is reported as “++ (>20% = ++)”. “162 (IADNPQLSFY; listed as Homo sapiens) [compound 162]” was tested, and the Peptide exchange was “++++ (>75% = ++++)”. “163 (KIRAEVLSHY; listed as Homo sapiens) [compound 163]” was tested, and the Peptide exchange was “++ (>20% = ++)”. In the case of “164 (KLAGTVFQY; listed as Homo sapiens) [compound 164]”, the Peptide exchange is reported as “++ (>20% = ++)”. “165 (VSVYNSYPY; listed as Homo sapiens) [compound 165]” was tested, and the Peptide exchange was “++ (>20% = ++)”. In the case of “166 (YHRICELLSDY; listed as Homo sapiens) [compound 166]”, the Peptide exchange is reported as “++++ (>75% = ++++)”. “167 (RAVQPGETY; listed as Homo sapiens) [compound 167]” was tested, and the Peptide exchange was “+++ (>50 = +++)”. In the case of “168 (VQPGETYTY; listed as Homo sapiens) [compound 168]”, the Peptide exchange is reported as “+++ (>50 = +++)”. In the case of “169 (TVDNANILL; listed as Homo sapiens) [compound 169]”, the Peptide exchange is reported as “++ (>20% = ++)”. “170 (VQIAKGMNY; listed as Homo sapiens) [compound 170]” was tested, and the Peptide exchange was “+++ (>50 = +++)”. In the case of “171 (ITDFGLAKL; listed as Homo sapiens) [compound 171]”, the Peptide exchange is reported as “++ (>20% = ++)”. For “172 (FSEPFHLIV; listed as Homo sapiens) [compound 172]”, the Peptide exchange was “+++ (>50 = +++)”. In the case of “173 (QSTTGVSHY; listed as Homo sapiens) [compound 173]”, the Peptide exchange is reported as “+++ (>50 = +++)”. “174 (TSEVEGLAFVSY; listed as Homo sapiens) [compound 174]” was tested, and the Peptide exchange was “+++ (>50 = +++)”. In the case of “175 (GLEYEAPKLY; listed as Homo sapiens) [compound 175]”, the Peptide exchange is reported as “++ (>20% = ++)”. “176 (HTDLESPSAVY; listed as Homo sapiens) [compound 176]” was tested, and the Peptide exchange was “+++ (>50 = +++)”. “177 (LVDGKWQEF; listed as Homo sapiens) [compound 177]” was tested, and the Peptide exchange was “++ (>20% = ++)”. For “178 (TQRTSFQFY; listed as Homo sapiens) [compound 178]”, the Peptide exchange was “++ (>20% = ++)”. In the case of “179 (SSTDFTFASW; listed as Homo sapiens) [compound 179]”, the Peptide exchange is reported as “+ (>10% =+)”. With “180 (AQISDTGRY; listed as Homo sapiens) [compound 180]” the Peptide exchange was “++ (>20% = ++)”. “181 (SVTDLIGGKW; listed as Homo sapiens) [compound 181]” was tested, and the Peptide exchange was “++ (>20% = ++)”. For “182 (TQPELSSRY; listed as Homo sapiens) [compound 182]”, the Peptide exchange was “++ (>20% = ++)”. In the case of “183 (LADTDLGMTF; listed as Homo sapiens) [compound 183]”, the Peptide exchange is reported as “++ (>20% = ++)”. For “184 (KTIQEVAGY; listed as Homo sapiens) [compound 184]”, the Peptide exchange was “++ (>20% = ++)”. With “185 (NSDESADSEPHKY; listed as Homo sapiens) [compound 185]” the Peptide exchange was “++++ (>75% = ++++)”. For “186 (AVSSGLFFY; listed as Homo sapiens) [compound 186]”, the Peptide exchange was “++ (>20% = ++)”. For “187 (TQKSVQVLAY; listed as Homo sapiens) [compound 187]”, the Peptide exchange was “++ (>20% = ++)”. In the case of “188 (DIPDYLLQY; listed as Homo sapiens) [compound 188]”, the Peptide exchange is reported as “+++ (>50 = +++)”. “189 (FRGVFVHRY; listed as Homo sapiens) [compound 189]” was tested, and the Peptide exchange was “++ (>20% = ++)”. “190 (VSSTVHNLY; listed as Homo sapiens) [compound 190]” was tested, and the Peptide exchange was “++++ (>75% = ++++)”. “191 (FTRAFDQLRM; listed as Homo sapiens) [compound 191]” was tested, and the Peptide exchange was “+++ (>50 = +++)”. In the case of “192 (LAFYYGMY; listed as Homo sapiens) [compound 192]”, the Peptide exchange is reported as “++ (>20% = ++)”. In the case of “193 (SQNGQLIHY; listed as Homo sapiens) [compound 193]”, the Peptide exchange is reported as “+++ (>50 = +++)”. With “194 (CYTADNEMGY; listed as Homo sapiens) [compound 194]” the Peptide exchange was “+++ (>50 = +++)”. For “195 (YTADNEMGYY; listed as Homo sapiens) [compound 195]”, the Peptide exchange was “+++ (>50 = +++)”. In the case of “196 (RLAQYTIERY; listed as Homo sapiens) [compound 196]”, the Peptide exchange is reported as “++ (>20% = ++)”. “197 (NDEIDKLTGY; listed as Homo sapiens) [compound 197]” was tested, and the Peptide exchange was “++++ (>75% = ++++)”. “198 (KLTDYINANY; listed as Homo sapiens) [compound 198]” was tested, and the Peptide exchange was “++ (>20% = ++)”. With “199 (LCAAVLAKY; listed as Homo sapiens) [compound 199]” the Peptide exchange was “++ (>20% = ++)”. For “200 (SLPEFGLTY; listed as Homo sapiens) [compound 200]”, the Peptide exchange was “++ (>20% = ++)”. “201 (SLPEFGLTYY; listed as Homo sapiens) [compound 201]” was tested, and the Peptide exchange was “++ (>20% = ++)”. With “202 (QTDINGGSLK; listed as Homo sapiens) [compound 202]” the Peptide exchange was “+++ (>50 = +++)”. With “203 (LSQDELSKF; listed as Homo sapiens) [compound 203]” the Peptide exchange was “++ (>20% = ++)”. For “204 (NVKEAPTEY; listed as Homo sapiens) [compound 204]”, the Peptide exchange was “++ (>20% = ++)”. In the case of “205 (RMQEGSEVY; listed as Homo sapiens) [compound 205]”, the Peptide exchange is reported as “++ (>20% = ++)”. In the case of “207 (LLEGEDAHLTQY; listed as Homo sapiens) [compound 207]”, the Peptide exchange is reported as “+++ (>50 = +++)”. In the case of “208 (LLISKAEDY; listed as Homo sapiens) [compound 208]”, the Peptide exchange is reported as “++ (>20% = ++)”. For “209 (EADPFLKYL; listed as Homo sapiens) [compound 209]”, the Peptide exchange was “++ (>20% = ++)”. For “210 (LLEADPFLKY; listed as Homo sapiens) [compound 210]”, the Peptide exchange was “++++ (>75% = ++++)”. “211 (YLNEWGSRF; listed as Homo sapiens) [compound 211]” was tested, and the Peptide exchange was “++ (>20% = ++)”. In the case of “212 (MMTDLTSVY; listed as Homo sapiens) [compound 212]”, the Peptide exchange is reported as “+++ (>50 = +++)”. “213 (VSDSTTEITY; listed as Homo sapiens) [compound 213]” was tested, and the Peptide exchange was “+++ (>50 = +++)”. For “214 (VQDPSLPVY; listed as Homo sapiens) [compound 214]”, the Peptide exchange was “++ (>20% = ++)”. “215 (DTLEAATSLY; listed as Homo sapiens) [compound 215]” was tested, and the Peptide exchange was “++ (>20% = ++)”. In the case of “216 (NSMLDPLVY; listed as Homo sapiens) [compound 216]”, the Peptide exchange is reported as “++++ (>75% = ++++)”. “217 (LMDEGAVLTL; listed as Homo sapiens) [compound 217]” was tested, and the Peptide exchange was “++ (>20% = ++)”. With “218 (FTAQLQLY; listed as Homo sapiens) [compound 218]” the Peptide exchange was “+++ (>50 = +++)”. For “219 (KTELETALYY; listed as Homo sapiens) [compound 219]”, the Peptide exchange was “+++ (>50 = +++)”. “220 (DVERIKDTY; listed as Homo sapiens) [compound 220]” was tested, and the Peptide exchange was “++ (>20% = ++)”. “221 (TDVERIKDTY; listed as Homo sapiens) [compound 221]” was tested, and the Peptide exchange was “+++ (>50 = +++)”. With “222 (GSPDAVVSY; listed as Homo sapiens) [compound 222]” the Peptide exchange was “+ (>10% =+)”. In the case of “223 (NAVDVVPSSF; listed as Homo sapiens) [compound 223]”, the Peptide exchange is reported as “+ (>10% =+)”. For “224 (RTDEGDNRVW; listed as Homo sapiens) [compound 224]”, the Peptide exchange was “++ (>20% = ++)”. In the case of “225 (STDPNIVRK; listed as Homo sapiens) [compound 225]”, the Peptide exchange is reported as “+++ (>50 = +++)”. For “226 (QITPKHNGLY; listed as Homo sapiens) [compound 226]”, the Peptide exchange was “++ (>20% = ++)”. “227 (ESAPKEVSRY; listed as Homo sapiens) [compound 227]” was tested, and the Peptide exchange was “++ (>20% = ++)”. With “228 (KSFDDIAKY; listed as Homo sapiens) [compound 228]” the Peptide exchange was “++ (>20% = ++)”. In the case of “229 (MTDVFIDY; listed as Homo sapiens) [compound 229]”, the Peptide exchange is reported as “+++ (>50 = +++)”. With “230 (CVIETFHKY; listed as Homo sapiens) [compound 230]” the Peptide exchange was “+++ (>50 = +++)”. With “231 (LLPLLVMAY; listed as Homo sapiens) [compound 231]” the Peptide exchange was “++ (>20% = ++)”. With “232 (RYLNIVHATQLY; listed as Homo sapiens) [compound 232]” the Peptide exchange was “++ (>20% = ++)”. In the case of “233 (RINSATGQY; listed as Homo sapiens) [compound 233]”, the Peptide exchange is reported as “++ (>20% = ++)”. “234 (YTDLTTIQV; listed as Homo sapiens) [compound 234]” was tested, and the Peptide exchange was “++++ (>75% = ++++)”. For “235 (SIEIDHTQY; listed as Homo sapiens) [compound 235]”, the Peptide exchange was “++ (>20% = ++)”. With “236 (VLDSLLAQY; listed as Homo sapiens) [compound 236]” the Peptide exchange was “++++ (>75% = ++++)”. In the case of “237 (AQEAAVFLTLY; listed as Homo sapiens) [compound 237]”, the Peptide exchange is reported as “+++ (>50 = +++)”. For “238 (ETDWGLLKGHTY; listed as Homo sapiens) [compound 238]”, the Peptide exchange was “++++ (>75% = ++++)”.
